B1: Intersectin-1, residues 909 to 971; numbered along this chain, Q15811 (parent)
chain: QGEKVEGLQAQALYPWRAKKDNHLNFNKNDVITVLEQQDMWWFGEVQGQKGWFPKSYVKLISG

Variants of: B1
Test: abundance fitness (aPCA) (normalised: wild type 0, dead -1); higher = more abundant; growth selection in yeast, the domain comes from the species named
Conditions: Homo sapiens

Abundance fitness: each site, then its substitutions
W42: M -0.192; D -0.429; T -0.527; G -0.734; P -0.658; Y 0.031; R -0.767; L -0.088; I -0.605; Q -0.837; V -0.411; E -0.814; C -0.055; A -0.244; F -0.057; S -0.667; K -1.18
V34: L -0.343; M -0.772; R -0.776; E -0.549; T -0.711; Y -0.856; S -0.424; P -0.646; C -0.427; G -0.455; W -0.524; I 0.221
L35: M -0.019; G -0.033; R -0.173; V -0.34; Q -0.058; C 0.145; T -0.327; W 0.111; A -0.612; E -0.243; K 0.168; F -0.284; S -0.114
F43: G -0.596; I -0.663; C -0.563; Y -0.119; S -0.546; N -0.427; E -0.465; H 0.168; V -0.923; D -0.997; A -0.696; P -0.808; R -0.328; L -0.019; K -0.202; M -0.107; W -0.061; T -0.811
V31: K -0.006; A -0.274; M 0.003; W -0.132; R -0.03; S -0.224; L -0.022; P -0.325; Q -0.102; C -0.08; E -0.185; I 0.011; D -0.484; Y -0.058; H -0.117; F -0.022; G -0.476
Q37: C -0.127; P -0.289; A -0.036; I -0.286; V -0.588; T -0.052; E -0.159; G -0.085; F -0.078; M 0.323; K 0.149; S -0.294; R -0.06; H -0.274; W -0.162; N -0.279
G48: P -0.604; V -0.584; C -0.361; K -0.053; L -0.259; Q -0.38; W -0.939; T -0.526; M -0.226; E 0.011; Y -0.074; D -0.061; F -0.522; S -0.149; A -0.208; H -0.381; R -0.224
W41: N -0.154; G -0.78; L -0.252; S -0.274; R -0.6; F -0.238; A -0.489; H -0.36; T -0.659; K -0.427; P -0.94; I -0.815; Q -0.316; M -0.071; E -0.59; D -0.245; C -0.318; Y -0.053; V -0.319
K50: N 0.014; R 0.056; F -0.208; T -0.108; Q -0.308; A -0.183; V -0.26; L -0.383; M -0.177; W -0.255; H -0.271; D -0.256; S -0.139; P -0.242; C -0.113; E -0.052; I -0.224
G44: W -1; A -1.03; V -1.1; C -0.79; D -0.999; T -0.604; P -1.11
D30: Y -0.469; V -0.357; N -0.396; Q -0.036; W -0.331; S -0.259; R -0.778; T -0.15; P -0.759
E45: W -0.274; R -0.034; Y 0.003; V -0.013; K -0.222; N -0.356; A -0.245; Q 0.067; F -0.055; H 0.089; T 0.073; S -0.039; L -0.076; G -0.263; I -0.192; D -0.223; M -0.18; C -0.117
W52: I -0.458; G -1.18; A -0.708; F -0.232
Q47: W -0.125; A 0.009; N -0.084; F 0.133; D -0.546; S -0.167; C -0.332; Y -0.113; R -0.151; M -0.097; L -0.254; T -0.014; E 0.017; P -0.293; G -0.009; V -0.097; K 0.027
M40: G -0.109; Q 0.052; K 0.144; N 0.121; P 0.025; L 0.008; W -0.475; C 0.084; F -0.233; Y -0.344; S 0.013; R -0.127; A -0.083; I 0.034; T -0.115; V -0.164
V46: I -0.11; K -0.051; T -0.155; Q -0.279; D -0.384; A 0.015; W -0.09; S -0.001; M -0.048; F -0.101; L 0.079; G -0.193; N -0.309; R -0.1; Y -0.287; H 0.035; E -0.584; C 0.012
E36: G -0.076; H -0.235; A -0.026; D -0.761; L -0.094; R -0.147; Q -0.344; K 0.017; T -0.149; C -0.015; V -0.044; W -0.117; Y -0.279; M -0.177
T33: F -0.242; S -0.104; E -0.089; H -0.201; Y -0.016; C -0.159; N -0.233; A -0.071; L -0.158; D 0.086; M -0.068; I -0.213; W -0.175; R -0.034; P -0.897; K -0.1; V -0.113; G -0.196
Q38: E 0.008; M -0.061; A -0.463; F -0.423; S -0.148; V -0.302; L -0.056; R 0.029; W -0.286; P -0.313; C -0.04; G 0.026; K -0.173
Q49: I -0.208; E 0.222; C 0.046; R -0.031; G -0.005; S -0.232; K -0.483; Y -0.303; N -0.403; D -0.466; V -0.065; M -0.052; H 0.045
D39: V -0.304; R -0.182; G -0.014; K -0.268; Q -0.328; P -0.297; H -0.454; Y -0.208; S -0.127; C -0.262; W -0.588; E -0.071; A -0.014; M -0.221; T -0.009; F -0.313; N -0.215; L -0.385
I32: L -0.23; Q -1; W -0.869; E -1.03; V -0.052; M -0.446; T -0.97; H -0.692; F -0.423; D -0.568; A -0.7; R -0.766; K -0.965; G -0.658; P -0.42
G51: E -0.86; M -0.938; C -0.709; A -0.408; D -0.793; R -0.89; V -0.97; S -0.988

From the Human Domainome abundance scans (Beltran et al. 2025)
